From patent publication US20240207432A1 (BIOSION, published 2024)
Where two headings read alike, the source gives them in different places.

T1: human TROP2-his protein (human, UniProt P09758 27-274)
T1 construct: Biotin-labelled in the ELISAs, unlabelled analyte in Biacore; also called biotin-labeled human TROP2-his protein; biotin human Trop2-his
T1 sequence: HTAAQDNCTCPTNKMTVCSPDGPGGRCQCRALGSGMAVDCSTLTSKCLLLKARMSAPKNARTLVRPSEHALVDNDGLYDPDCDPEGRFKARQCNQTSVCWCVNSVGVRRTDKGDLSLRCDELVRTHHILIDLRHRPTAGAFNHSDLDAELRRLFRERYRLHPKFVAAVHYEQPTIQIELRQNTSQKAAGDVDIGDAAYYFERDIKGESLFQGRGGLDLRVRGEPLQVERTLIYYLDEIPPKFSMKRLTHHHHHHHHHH

T2: full length human TROP2 on 293F-TROP2 cells (human, UniProt P09758 27-323)
T2 construct: also called 293F-TROP2 cells (clone ID #3A8); cell surface TROP2
T2 sequence: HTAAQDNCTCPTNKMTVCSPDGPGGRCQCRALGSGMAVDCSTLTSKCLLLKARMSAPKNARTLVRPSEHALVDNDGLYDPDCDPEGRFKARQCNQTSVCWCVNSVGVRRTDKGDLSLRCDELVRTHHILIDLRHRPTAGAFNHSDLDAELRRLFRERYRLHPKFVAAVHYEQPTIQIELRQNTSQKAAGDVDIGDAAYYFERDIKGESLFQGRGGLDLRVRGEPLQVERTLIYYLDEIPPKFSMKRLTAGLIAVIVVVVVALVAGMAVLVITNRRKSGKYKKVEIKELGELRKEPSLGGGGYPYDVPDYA

T3: cynomolgus TROP2-his protein (cynomolgus monkey, UniProt P09758 27-272 (human entry), limits assumed)
T3 construct: no cleavage site is stated; also called Cynomolgus monkey TROP2-his protein; monkey TROP2
T3 chain: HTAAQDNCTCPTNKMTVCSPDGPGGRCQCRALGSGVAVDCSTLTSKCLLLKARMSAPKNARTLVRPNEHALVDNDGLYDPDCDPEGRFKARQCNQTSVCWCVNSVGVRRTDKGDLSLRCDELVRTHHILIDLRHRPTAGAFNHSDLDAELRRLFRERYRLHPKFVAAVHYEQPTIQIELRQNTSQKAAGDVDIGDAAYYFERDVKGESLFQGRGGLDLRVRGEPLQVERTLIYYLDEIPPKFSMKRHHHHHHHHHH


What was measured:
human TROP2-his protein [1] = biological target: T1, human TROP2-his protein; assay: SPR Biacore, human TROP2-his analyte
[2] = biological target: T2, full length human TROP2 on 293F-TROP2 …; assay: FACS on 293F-TROP2 cells, MFI
human TROP2-his protein [3] = biological target: T1, human TROP2-his protein; assay: epitope grouping ELISA, 15 ug/ml antibody premixed with biotin human TROP2-his; competitor: coated BM1
Description: (§1) Firstly, capture ELISA was performed to determine the concentration of biotin-labeled human Trop2 proteins appropriate for the epitope binning test. […] The plates were washed for 4 times, added with 100 μl/well of serially diluted biotin human Trop2-his proteins (SEQ ID NO: 67) in PBST with 2.5% non-fatty milk (starting from 1.3 μg/ml with a 5-fold serial dilution), and incubated for 40 min at 37° C. Then the plates were washed for 4 times and added with 100 μl/vell of HRP-streptavidin (Jackson Immuno Research, Cat #016-030-084). The plates were incubated for another 40 min at 37° C. Then the plates were washed again, and 100 μl/well TMB was added for color development at RT for 15 min followed by quenching with 50 μl 1M H₂SO₄. The OD values at 450 nm were read.
(§2) With the appropriate concentration determined above, epitope grouping ELISA was performed. […] ELISA plates were washed once with wash buffer (PBS+0.05% v/v Tween-20, PBST) and then blocked with 200 μl blocking buffer (5% w/w non-fatty milk in PBST) for 2 hours at 37° C. […] The mixtures were incubated at room temperature for 40 minutes. After plate washing for 4 times, the antibody/biotin-TROP2-his protein mixtures were added to the antibody coated plates, 100 μl per well, and incubated for another 40 min at 37° C. Then 100 μl/well of HRP-streptavidin was added and incubated for 40 min. Then OD₄₅₀ values were determined and the cross-competition capability was calculated (cross-competition capability of antibody X (%)=(OD₄₅₀ of Antibody X-[…] of Blank)/(OD₄₅₀ of no mAb-OD₄₃₀ of Blank)*100%).

human TROP2-his protein [4] = biological target: T1, human TROP2-his protein; assay: epitope grouping ELISA, 15 ug/ml antibody premixed with biotin human TROP2-his; competitor: coated BM2
Description: as §1, §2

human TROP2-his protein [5] = biological target: T1, human TROP2-his protein; assay: epitope grouping ELISA, 15 ug/ml antibody premixed with biotin human TROP2-his; competitor: coated huA1E4F7D4-V16
Description: as §1, §2

[6] = biological target: T2, full length human TROP2 on 293F-TROP2 …; assay: FACS on 293F-TROP2 cells, MFI; remark: listed apart in the source
Description: The binding activity of the mouse anti-TROP2 antibodies to cell surface TROP2 proteins was tested by flow cytometry (FACS), using Biosion in-house prepared 293F-TROP2 cells (clone ID #3A8) stably expressing full length human TROP2s (uniprot #P09758, SEQ ID NO.: 71) on cell membrane. The 293F-TROP2 cells were prepared by transfecting 293F cells (Thermofisher Inc., Cat #11625019) with a pCMV-T-P plasmid inserted with human TROP2 coding sequence between EcoRI and XbaI sites, following the instruction of lipofectamine 3000 transfection reagent (Thermo Fisher).
The 293F-TROP2 cells were harvested from cell culture flasks, washed twice and re-suspended in phosphate buffered saline (PBS) containing 2% v/v Fetal Bovine Serum (FACS buffer). […] Following an incubation of 40 minutes at 4° C. in dark, cells were washed twice and re-suspended in FACS buffer. Fluorescence was measured using a Becton Dickinson FACS Canto II-HTS equipment, and the MFI (mean fluorescence intensity) was plotted against antibody concentration. Data was analyzed using Graphpad Prism software and EC₅₀ values were reported.

[7] = biological target: T3, cynomolgus TROP2-his protein; assay: indirect ELISA, cynomolgus TROP2-his coated at 2 ug/mL, OD(450-630)
Description: (§3) The anti-TROP2 antibodies of the disclosure were tested for their cross-reaction with cynomolgus TROP2 proteins. Briefly, 96-well micro plates were coated with 100 μl 2 μg/ml cynomolgus TROP2-his proteins (prepared in-house with SEQ ID NO: 70) in carbonate/bicarbonate buffer (pH 9.6) overnight at 4° C. ELISA plates were washed once with wash buffer (PBS+0.05% v/v Tween-20, PBST) and then blocked with 200 μl/well blocking buffer (5% w/v non-fatty milk in PBST) for 2 hours at 37° C. […] After a final wash, plates were incubated with 100 μl/well TMB (Innoreagents) at room temperature. The reaction was stopped 3-10 minutes later at room temperature with 50 μl/well 1M H₂SO₄, and the absorbance of each well was read on a microplate reader using dual wavelength mode with 450 nm for TMB and 630 nm as the reference wavelength. The OD (450-630) values were plotted against antibody concentration. Data was analyzed using Graphpad Prism software and EC₅₀ values were reported.

human TROP2-his protein [8] = biological target: T1, human TROP2-his protein; assay: SPR Biacore T200, mAb captured on anti-mouse IgG CM5 chip, TROP2-his analyte
Description: (§4) Un-reacted moieties on the chip (biosensor) surface were blocked with ethanolamine. […] The antigen-antibody association kinetics was followed for 2 minutes and the dissociation kinetics was followed for 10 minutes. The association and dissociation curves were fit to a 1:1 Langmuir binding model using BIAcore evaluation software.

[9] = biological target: T3, cynomolgus TROP2-his protein; assay: as above
Description: as §4

human TROP2-his protein [10] = biological target: T1, human TROP2-his protein; assay: capture ELISA, antibody captured on anti-mouse IgG Fc coat, biotin human TROP2-his in solution, OD(450-630)
Description: Plates were washed once with wash buffer (PBS+0.05% v/v Tween-20, PBST) and then blocked with 200 μl/well blocking buffer (5% w/v non-fatty milk in PBST) for 2 hours at 37° C. […] Plates containing captured anti-TROP2 antibodies were incubated with biotin-labeled human TROP2-his protein (prepared in house, SEQ ID NO: 67, 56.7 ng/mL in 2.5% w/v non-fatty milk in PBST, 100 μl/well) for 40 minutes at 37° C., washed 4 times, and incubated with streptavidin conjugated HRP (1:10000 dilution in PBST, Jackson Immuno Research, Cat #016-030-084, 100 μl/well) for 40 minutes at 37° C. After a final wash, plates were incubated with 100 μl/well ELISA substrate TMB (Innoreagents, Cat #TMB-S-002) at room temperature. The reaction was stopped in 3-10 minutes at room temperature with 50 μl/well 1M H₂SO₄, and the absorbance of each well was read on a microplate reader using dual wavelength mode with 450 nm for TMB and 630 nm as the reference wavelength. The OD (450-630) values were plotted against antibody concentration. Data was analyzed using Graphpad Prism software and EC₅₀ values were reported.

human TROP2-his protein [11] = biological target: T1, human TROP2-his protein; assay: competitive ELISA: BM1 coated at 1 ug/mL, antibody premixed with biotin human TROP2-his; blocked: binding of TROP2-his to coated BM1
Description: The mouse anti-TROP2 antibodies were tested for epitope binding in a competitive ELISA assay. […] ELISA plates were washed once with wash buffer (PBS+0.05% v/v Tween-20, PBST) and then blocked with 200 μl blocking buffer (5% w/v non-fatty milk in PBST) for 2 hours at 37° C. While blocking, the anti-TROP2 antibodies or controls were diluted with biotin labeled human TROP2-his protein (SEQ ID NO: 67, 34 ng/mL in 2.5% wA non-fatty milk in PBST), starting at 80 nM with a 5-fold serial dilution, and incubated at room temperature for 40 minutes. After plate washing for 4 times, the antibody/TROP2-his protein mixtures were added to the antibody coated plates, 100 μl per well. After incubation at 37° C. for 40 minutes, plates were washed 4 times again using wash buffer. Then the plates were added and incubated with 100 μl Peroxidase Streptavidin (1:10000 dilution in PBST buffer. Jackson Immunoresearch, Cat #016-030-084) for 40 minutes at 37° C. Plates were washed again using wash buffer. Finally, TMB was added and the reaction was stopped using 1M H₂SO₄. The absorbance of each well was read on a microplate reader using dual wavelength mode with 450 nm for TMB and 630 nm as the reference wavelength, and the OD (450-630) values were plotted against antibody concentration. Data was analyzed using Graphpad Prism software and IC₅₀ values were reported.

[12] = biological target: T3, cynomolgus TROP2-his protein; assay: indirect ELISA, cynomolgus TROP2-his coated at 2 ug/mL, OD(450-630)
Description: as §3

Binder | Kd (human TROP2-his protein [1]) | koff (human TROP2-his protein [1]) | kon (human TROP2-his protein [1]) | EC50 [2] | OD450 (human TROP2-his protein [3]) | OD450 (human TROP2-his protein [4]) | OD450 (human TROP2-his protein [5]) | EC50 [6] | EC50 [7] | Kd (human TROP2-his protein [8]) | koff (human TROP2-his protein [8]) | kon (human TROP2-his protein [8]) | Kd [9] | koff [9] | kon [9] | EC50 (human TROP2-his protein [10]) | IC50 (human TROP2-his protein [11]) | EC50 [12]
BM2 (in house made analog of Datopotamab) (antibody, human IgG1, kappa, V domains shown) VH: QVQLVQSGAEVKKPGASVKVSCKASGYTFTTAGMQWVRQAPGQGLEWMGWINTHSGVPKYAEDFKGRVTISADTSTSTAYLQLSSLKSEDTAVYYCARSGFGSSYWYFDVWGQGTLVTVSS VL: DIQMTQSPSSLSASVGDRVTITCKASQDVSTAVAWYQQKPGKAPKLLIYSASYRYTGVPSRFSGSGSGTDFTLTISSLQPEDFAVYYCQQHYITPLTFGQGTKLEIKR | 28.7 nM | 0.00364 s⁻¹ | 127000 M⁻¹ s⁻¹ | 0.908 nM | 0.519 OD450 | 0.354 OD450 | 1.63 OD450 | – | – | – | – | – | – | – | – | – | – | –
mouse antibody A1B12D2B4E7B3 (antibody, V domains shown, Mouse monoclonal IgG purified from hybridoma supernatant) VH: EVQLQQSGPELVKPGASVKMSCKASGFTFTDYYMNWVKQSHGKSLEWIGYIYPNHGGTGYNQKFKDKATLTVDKSSSTAYMELRSLTSDDSAVYYCARENYGYAMDYWGQGTSVTVSS VL: DVVMTQTPLSLPVSLGDQASISCRSSQSLVHGDGNTYLHWFLQKPGQSPKLLIYTVSNRFSGVPDRFSGSGSGTDFTLKINRVEAEDLGIYFCSQTTHVPTFGGGTKLEIK | – | – | – | – | – | – | – | 0.896 nM | 0.578 nM | 1.06 nM | 8.92e-05 s⁻¹ | 84000 M⁻¹ s⁻¹ | 1.12 nM | 0.000124 s⁻¹ | 111000 M⁻¹ s⁻¹ | 0.248 nM | 1.55 nM | –
mouse antibody B1G1F5A3 (antibody, V domains shown, Mouse monoclonal IgG purified from hybridoma supernatant) VH: EVQLQQSGPELVKPGTSVKMSCKASGYSFADYSMNWVRQSHGNSLEWIGYIYPNNGASGFNQKFKGKATLTVDKSSSTAYMELHSLTSEDSAVYYCAREQDNSGYCFDYWGQGTSLTVSS VL: DVVMTQTPLSLAVRLGDQASISCRSSLNLVHSNGNTFLHWYLQRPGQSPKLLIYKVSNRFSGVSDRFSGSGSGTDFTLKISRVEAEDLGVYFCSQTTHVPTFGGGTKLEIK | – | – | – | – | – | – | – | – | – | 0.416 nM | 5.58e-05 s⁻¹ | 134000 M⁻¹ s⁻¹ | 0.568 nM | 8.86e-05 s⁻¹ | 156000 M⁻¹ s⁻¹ | 0.335 nM | 0.516 nM | 0.863 nM
